{
  "source": "the nanobody polyreactivity screen of Harvey et al. (2022)",
  "assay": "yeast display, Sf9 membrane polyspecificity reagent, FACS + sequencing; frameworks hold sequencing errors",
  "procedure,_shortened": "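Nanobodies came from a synthetic yeast display library in Saccharomyces cerevisiae BJ5465, induced with galactose for 36–48 hours and stained for 1 hour at 4 °C with 10% biotinylated, detergent-solubilized Sf9 membrane reagent. Cells were enriched on streptavidin microbeads and then FACS-sorted, with low and high (top ~1%) gates set on anti-HA fluorescence for expression and streptavidin fluorescence for reagent binding. Each polyreactivity label reflects the gate a clone came from. Genes were amplified by colony PCR, sequenced by MiSeq 2 × 250 and filtered by CDR length.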",
  "data": [
    {"sequence": "QVQLVESGGGLVQAGGSLRLSCAASGSTFLHYAMGWYRQAPGKEREFTYYADSVKGRFTISRDNAKNTVYLHMNSLNPEDTAVYYCNAGPYWSPYGDDFGYWGQGTQVTVSS", "values": [
      {"measurement": "polyreactivity (PSR sort gate)", "value": "low polyreactivity"}
    ]},
    {"sequence": "QVQLVESGGGLVQAGGSLRLSCAASGSTFLKNAMGWSRQAPGKERELVAAISYSTTRTYYADSVKGRFTISRDNAKNTVYLQMNSLKPEDTAVYYCNKASYWGSGFDYWGQGTQVTVSS", "values": [
      {"measurement": "polyreactivity (PSR sort gate)", "value": "low polyreactivity"}
    ]},
    {"sequence": "QVQLVESGGGLVQAGGSLRLSCAASGSTFLLNTMGWYRQAPGKERELVAAISSITGDTYYADSVKGRFTISRDNAKNTVYLQMNSLNPEDTAVYYCAAYLSETRPYLYDYWGQGTQVTVSS", "values": [
      {"measurement": "polyreactivity (PSR sort gate)", "value": "low polyreactivity"}
    ]},
    {"sequence": "QVQLVESGGGLVQAGGSLRLSCAASGSTFLLYDMGWYRQAPGKERELVAAITWSGGSTYYADSVKGRFTISRDNAKNTVYLQMNSLKPEDTAVYYCAADSLGDRYYYWGQGTQVTVSS", "values": [
      {"measurement": "polyreactivity (PSR sort gate)", "value": "low polyreactivity"}
    ]},
    {"sequence": "QVQLVESGGGLVQAGGSLRLSCAASGSTFLNYAMGWYRQAPGKERELVAAISGRGGRTYYADSVKGRFTISRDNAKNTVYLLMNSLKPEDTAVYYCAARKWVSYTSYDYWGQGTQVTVSS", "values": [
      {"measurement": "polyreactivity (PSR sort gate)", "value": "high polyreactivity"}
    ]},
    {"sequence": "QVQLVESGGGLVQAGGSLRLSCAASGSTFLPNAMGWYRQAPGKERELVAAISYRGGGTFYADSVKGRFTISRDNAKNTVYLQMNSLKPEDTAVYYCADDWSWFDNFDYWGQGTQVTVSS", "values": [
      {"measurement": "polyreactivity (PSR sort gate)", "value": "low polyreactivity"}
    ]},
    {"sequence": "QVQLVESGGGLVQAGGSLRLSCAASGSTFLRNAMGWYRQAPGKERELVAAISWSAGSTYYADSVKGRFTISRDNAKNTVYLQMNSLKPEDTAVYYCAVDKYVFVSYSFYFEYDYWGQGTQVTVSS", "values": [
      {"measurement": "polyreactivity (PSR sort gate)", "value": "low polyreactivity"}
    ]},
    {"sequence": "QVQLVESGGGLVQAGGSLRLSCAASGSTFLRYAMGWYRQAPGKERELVAAISVSGGSTYYADSVKGRFTISRDNAKNTVYLQMNCLKPEDTAVYYCAAVYKRLQPYGYWGQGTQVTVSS", "values": [
      {"measurement": "polyreactivity (PSR sort gate)", "value": "high polyreactivity"}
    ]},
    {"sequence": "QVQLVESGGGLVQAGGSLRLSCAASGSTFLRYAMGWYRQAPGTERELVAALSYSGGSTYYADSVKGRFTISRDTAKKTVSLQMNSLKPEDTAVYYCNAGVFANDNGGRLDQFTWEYEYWGQGTQVTVSS", "values": [
      {"measurement": "polyreactivity (PSR sort gate)", "value": "low polyreactivity"}
    ]},
    {"sequence": "QVQLVESGGGLVQAGGSLRLSCAASGSTFLRYTMGWYRQAPGKARELVAAITRSGGSTYYADSVKGRFTISRDTAKNTVYLQMNSLKPEDTAVYYCAKRYRVAYGYWGQGTQVTVSS", "values": [
      {"measurement": "polyreactivity (PSR sort gate)", "value": "high polyreactivity"}
    ]},
    {"sequence": "QVQLVESGGGLVQAGGSLRLSCAASGSTFLSNAMGWYRQAPGKERELVASINWIGGSTRYADSVKGRFTISRDNAKNTVYLQMNSLKPEDTAVYYCAVELWWKWPFYYWGQGTQVTVSS", "values": [
      {"measurement": "polyreactivity (PSR sort gate)", "value": "high polyreactivity"}
    ]},
    {"sequence": "QVQLVESGGGLVQAGGSLRLSCAASGSTFLSYAMGRYRQAPGKERELVAAITGSGGNTYYADSVKGRFTISRDNAKNSVYLQMNSLKPEDTAVYYCAADTSYWYDYYIDYVGYYYWGQGTQVTVSS", "values": [
      {"measurement": "polyreactivity (PSR sort gate)", "value": "high polyreactivity"}
    ]},
    {"sequence": "QVQLVESGGGLVQAGGSLRLSCAASGSTFLSYAMGWYRQAPGKEREMVAAISYSAGSTYYADSVKGRFTISRDNAKNTVYLQMNSLKPEDTAVYYCGAVQLVPGYVDSNDYYWGQGTQVTVSS", "values": [
      {"measurement": "polyreactivity (PSR sort gate)", "value": "low polyreactivity"}
    ]},
    {"sequence": "QVQLVESGGGLVQAGGSLRLSCAASGSTFLSYVMGWYRQAPGKERELVAAISGITGSTYYADSVKGRFTLSRDNAKNTVYLQMNSLKPQDTAVYYWAKVYGYNRLFYYRYDYWGQGTQVTVSS", "values": [
      {"measurement": "polyreactivity (PSR sort gate)", "value": "high polyreactivity"}
    ]},
    {"sequence": "QVQLVESGGGLVQAGGSLRLSCAASGSTFLSYVMGWYRQAPGKERELVAAITGTGGRTYYADSVKGRFTISRDNAKNTVYLQMNSLKPEDSAVYYCTAYRKHGYDYWGQGTQVTVSS", "values": [
      {"measurement": "polyreactivity (PSR sort gate)", "value": "high polyreactivity"}
    ]},
    {"sequence": "QVQLVESGGGLVQAGGSLRLSCAASGSTFLTNDMGWYRQAHGKERELVAVITDGDTTYADSVKGRFTISRDNAKNTVYLQMNSLKPEDTAVYYCAADENYWSAGYDYWGQGTQVTVSS", "values": [
      {"measurement": "polyreactivity (PSR sort gate)", "value": "low polyreactivity"}
    ]},
    {"sequence": "QVQLVESGGGLVQAGGSLRLSCAASGSTFLTNVMGWYRQAPGKERELVAAITIGGSTNYADSVKGRFTISRDNAKNTVYLQMNSLKPEDTAVYYCATDIRRKPRYVDYEYWGQGTQVTVSS", "values": [
      {"measurement": "polyreactivity (PSR sort gate)", "value": "low polyreactivity"}
    ]}
  ]
}
